{"source": "paper PMC5886543", "about": "“A staphylococcal anti-sigma factor possesses a single-domain, carries different denaturant-sensitive regions and unfolds via two intermediates” (PLoS ONE, 2018)", "proteins": {"B1": {"name": "rRsbW, a recombinant S. aureus RsbW (enzyme, Staphylococcus aureus Newman, UniProt A6QIR1 1-159, looked up)", "chain": "MQSKEDFIEMRVPASAEYVSLIRLTLSGVFSRAGATYDDIEDAKIAVSEAVTNAVKHAYKENNNVGIINIYFEILEDKIKIVISDKGDSFDYETTKSKIGPYDKDENIDFLREGGLGLFLIESLMDEVTVYKESGVTISMTKYIKKEQVRNNGERVEIS", "notes": "RsbW of Staphylococcus aureus Newman, UniProt A6QIR1; 480 bp insert amplified from genomic DNA with primers rsbWF (begins at the ATG) and rsbWR; native RsbW 17.92 kDa, rRsbW 21.74 kDa. numbers count on: rRsbW with its 36 N-terminal extra residues (RsbW residue 1 is rRsbW residue 37); Surmised: the 36 extra residues are those that pET28a adds before its EcoRI site; also called anti-sigma factor; …"}}, "target": "the molecule itself", "test": "cross-linking; rRsbW 10 uM in buffer B (20 mM phosphate pH 8.0, 100 mM NaCl, 5% glycerol), 0.1% glutaraldehyde, 2 min, 25 C; SDS-13.5% PAGE; no denaturant", "data": [{"protein": "B1", "values": [{"measurement": "stoichiometry N", "result": 2}]}]}
